Results published in US20120258108A1 (AbbVie / Abbott, published 2012).
Blank lines part the entries; values can stand above or below the binder they belong to.

How the values were obtained:
[1] = target: T1, Recombinant Human TNFα/TNFSF1A (human, UniProt P01375 77-233); assay: cell-based or functional assay
[2] = target: T1, Recombinant Human TNFα/TNFSF1A; assay: SPR (BIACORE)
Method: (§1) The BIACORE assay (Biacore, Inc, Piscataway, N.J.) determines the affinity of antibodies or DVD-Ig with kinetic measurements of on-rate and off-rate constants. Binding of antibodies or DVD-Ig to a target antigen (for example, a purified recombinant target antigen) was determined by surface plasmon resonance-based measurements with a Biacore® 1000 or 3000 instrument (Biacore® AB, Uppsala, Sweden) using running HBS-EP (10 mM HEPES [pH 7.4], 150 mM NaCl, 3 mM EDTA, and 0.005% surfactant P20) at 25° C. All chemicals were obtained from Biacore® AB (Uppsala, Sweden) or otherwise from a different source as described in the text. For example, approximately 5000 RU of goat anti-mouse IgG, (Fcγ), fragment specific polyclonal antibody (Pierce Biotechnology Inc, Rockford, Ill.) diluted in 10 mM sodium acetate (pH 4.5) is directly immobilized across a CM5 research grade biosensor chip using a standard amine coupling kit according to manufacturer's instructions and procedures at 25 μg/ml. Unreacted moieties on the biosensor surface are blocked with ethanolamine. Modified carboxymethyl dextran surface in flowcell 2 and 4 is used as a reaction surface. Unmodified carboxymethyl dextran without goat anti-mouse IgG in flow cell 1 and 3 is used as the reference surface. For kinetic analysis, rate equations derived from the 1:1 Langmuir binding model are fitted simultaneously to association and dissociation phases of all eight injections (using global fit analysis) with the use of Biaevaluation 4.0.1 software. Purified antibodies or DVD-Ig are diluted in HEPES-buffered saline for capture across goat anti-mouse IgG specific reaction surfaces. Antibodies or DVD-Ig to be captured as a ligand (25 μg/ml) are injected over reaction matrices at a flow rate of 5 μl/min. The association and dissociation rate constants, kₒₙ (M⁻¹ s⁻¹) and koff (s⁻¹) are determined under a continuous flow rate of 25 μl/min. Rate constants are derived by making kinetic binding measurements at different antigen concentrations ranging from 10-200 nM. The equilibrium dissociation constant (M) of the reaction between antibodies or DVD-Igs and the target antigen is then calculated from the kinetic rate constants by the following formula: KD=koff/kₒₙ. Binding is recorded as a function of time and kinetic rate constants are calculated.

Recombinant Human DLL4 = Recombinant Human DLL4 (human, UniProt Q9NR61 27-524); assay: SPR (BIACORE)
Method: as §1

[3] = target: Recombinant Human VEGF 165 (human, UniProt P15692-4 27-191); assay: SPR (BIACORE)
Method: as §1

Recombinant Human DLL4, sequence (Q9NR61 27-524 limits assumed): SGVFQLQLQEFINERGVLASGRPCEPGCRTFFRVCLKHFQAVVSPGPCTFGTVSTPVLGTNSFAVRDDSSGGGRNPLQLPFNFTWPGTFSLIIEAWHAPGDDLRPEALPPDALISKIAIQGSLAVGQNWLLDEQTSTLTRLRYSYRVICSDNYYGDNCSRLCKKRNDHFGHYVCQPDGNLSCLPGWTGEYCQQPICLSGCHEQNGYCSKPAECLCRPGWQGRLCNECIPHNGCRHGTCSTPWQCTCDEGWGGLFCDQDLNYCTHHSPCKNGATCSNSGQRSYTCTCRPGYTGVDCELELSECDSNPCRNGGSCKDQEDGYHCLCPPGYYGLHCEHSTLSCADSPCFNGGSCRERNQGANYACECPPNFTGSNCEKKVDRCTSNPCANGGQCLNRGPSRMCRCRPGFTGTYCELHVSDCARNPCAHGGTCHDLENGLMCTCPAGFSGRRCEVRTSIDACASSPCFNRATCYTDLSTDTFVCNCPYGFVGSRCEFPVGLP
Recombinant Human VEGF 165, sequence (P15692 other isoform, or with tags, fused parts or gaps limits assumed): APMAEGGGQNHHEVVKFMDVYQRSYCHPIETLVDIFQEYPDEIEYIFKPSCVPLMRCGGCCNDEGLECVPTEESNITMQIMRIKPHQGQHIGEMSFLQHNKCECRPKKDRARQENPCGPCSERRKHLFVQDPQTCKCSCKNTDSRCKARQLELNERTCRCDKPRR
T1 sequence (P01375 77-233 limits assumed): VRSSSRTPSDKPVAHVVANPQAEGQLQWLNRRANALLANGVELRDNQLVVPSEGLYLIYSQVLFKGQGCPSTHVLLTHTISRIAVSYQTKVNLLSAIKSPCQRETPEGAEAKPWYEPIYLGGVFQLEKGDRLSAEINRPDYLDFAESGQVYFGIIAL

- N-terminal VD TNFα Neutralization Assay EC50 nM (L929 cells) [1]: 0.026 nM
B1: DVD1720 (bispecific antibody)
heavy: not shown
light: EIVMTQSPGTLSLSPGERATLSCRASQGIRNYLAWYQQKPGQAPRLLIYAASTLQSGVPDRFSGSGSGTDFTLTISRLEPEDFAVFYCQRYNRAPYTFGQGTKVEIKRTVAAPDVQMTQSPSSLSASVGDRVTITCTSSQNIVHSNGNTYLEWYQQKPGKSPKLLIYKVSNRFSGVPSRFSGSGSGTDFTLTISSLQPEDVATYYCFQVSHVPYTFGQGTKVEIKRTVAAPSVFIFPPSDEQLKSGTASVVCLLNNFYPREAKVQWKVDNALQSGNSQESVTEQDSKDSTYSLSSTLTLSKADYEKHKVYACEVTHQGLSSPVTKSFNRGEC

- Kd [2]: 0.13 nM
- koff [2]: 0.00015 s⁻¹
- kon [2]: 1.2e+06 M⁻¹ s⁻¹
- TNFα Neutralization Assay EC50 nM (L929 cells) [1]: 0.228 nM
B2: AB284 (antibody, human IgG1, kappa, V domains shown)
VH: EVQLVQSGTEVKKPGESLKISCKASGFTFDDYAMHWVRQMPGKGLEWVSAITWNSGHIDYADSVEGQFTISRDNSFNTLFLQWSSLKASDTAMYYCAKVSYLSTASSLDYWGQGTMVTVSS
VL: EIVMTQSPATLSVSPGERATLSCRASQGIRNYLAWYQQKPGQAPRLLIYAASTLQSDVPARFSGSGSGTEFTLTISSLQSEDFAVYYCQRYNRAPYTFGQGTRLEIKR
notes: CDR-grafted parent antibody; also called TNF (AB058)

- Kd [2]: 5.4 nM
- koff [2]: 0.00012 s⁻¹
- kon [2]: 22000 M⁻¹ s⁻¹
- C-terminal VD TNFα Neutralization Assay EC50 nM (L929 cells) [1]: 1.17 nM
B3: DVD1727 (bispecific antibody, human IgG1, kappa)
heavy: not shown
light: DVQMTQSPSSLSASVGDRVTITCTSSQNIVHSNGNTYLEWYQQKPGKSPKLLIYKVSNRFSGVPSRFSGSGSGTDFTLTISSLQPEDVATYYCFQVSHVPYTFGQGTKVEIKRTVAAPDIRMTQSPASLSASLGETVNIECRASQGIRNYLAWYQQKPGKAPQLLIYAASTLQSGVPSRFSGSGSGTQFSLKINSLQSEDVATYYCQRYNRAPYTFGGGTKLELKRTVAAPSVFIFPPSDEQLKSGTASVVCLLNNFYPREAKVQWKVDNALQSGNSQESVTEQDSKDSTYSLSSTLTLSKADYEKHKVYACEVTHQGLSSPVTKSFNRGEC
notes: DVD-Ig; also called PGE2 (AB017) / TNF (AB023) DVD-Ig

- Kd [2]: 0.064 nM
- koff [2]: 7.9e-05 s⁻¹
- kon [2]: 1.2e+06 M⁻¹ s⁻¹
- TNFα Neutralization Assay EC50 nM (L929 cells) [1]: 0.053 nM
B4: AB314 (antibody, human IgG1, kappa, V domains shown)
VH: EVQLVESGGGLVQPANSLKLSCAASGFTFDDYAMHWVRQSPKKGLEWVSAITWNSGHIDYADSVEGRFTISRDNAKNTLYLQMDSLRSEDTATYYCAKVSYLSTASSLDYWGQGVLVTVSS
VL: DIRMTQSPASLSASLGETVNIECRASQGIRNYLAWYQQKPGKAPQLLIYAASTLQSGVPSRFSGSGSGTQFSLKINSLQSEDVATYYCQRYNRAPYTFGGGTKLELKR
notes: CDR-grafted parent antibody; also called TNF (AB023)

- Kd [2]: 0.088 nM
- koff [2]: 0.0001 s⁻¹
- kon [2]: 1.2e+06 M⁻¹ s⁻¹
- TNFα Neutralization Assay EC50 nM (L929 cells) [1]: 0.104 nM
B5: AB281 (antibody, human IgG1, kappa, V domains shown)
VH: EVTLRESGPALVKPTQTLTLTCTASGFTFDDYAMHWVRQPPGKGLEWVSAITWNSGHIDYADSVEGRFTISRDNSKNQLVLTMTNMDPVDTATYYCAKVSYLSTASSLDYWGQGTTVTVSS
VL: DIVMTQSPDSLAVSLGERATINCRASQGIRNYLAWYQQKPGQAPKLLIYAASTLQSGVPDRFSGSGSGTDFTLTISSLQAEDVAVYYCQRYNRAPYTFGGGTKVEIKR
notes: CDR-grafted parent antibody; also called TNF (AB057)

- Kd (Recombinant Human DLL4): 22 nM
- koff (Recombinant Human DLL4): 0.0028 s⁻¹
- kon (Recombinant Human DLL4): 120000 M⁻¹ s⁻¹
- Kd [3]: 0.5 nM
- koff [3]: 4.5e-05 s⁻¹
- kon [3]: 89000 M⁻¹ s⁻¹
B6: DVD1731 (bispecific antibody, human IgG1, kappa)
heavy: not shown
light: DIQMTQSPSSLSASVGDRVTITCRASEDIYSNLAWYQQKPGKAPKLLIYDTNNLADGVPSRFSGSGSGTDFTLTISSLQPEDVATYYCQQYNNYPPTFGQGTKVEIKRTVAAPDIRMTQSPASLSASLGETVNIECSASQDISNYLNWYQQKPGKAPQVLIYFTSSLHSGVPSRFSGSGSGTQFSLKINSLQSEDVATYYCQQYSTVPWTFGGGTKLELKRTVAAPSVFIFPPSDEQLKSGTASVVCLLNNFYPREAKVQWKVDNALQSGNSQESVTEQDSKDSTYSLSSTLTLSKADYEKHKVYACEVTHQGLSSPVTKSFNRGEC
notes: DVD-Ig
